Measurements published in the supplement of paper PMC7877785.
± gives the uncertainty stated by the source.

Experiment: self-splicing fitness, log relative to wild type (ln ratio); higher = more splicing; Tetrahymena group I intron in knt gene, E. coli kanamycin selection, DiMSum; sequences stand for … in CUCUCU…GGAGGGAAAAGUUAUCAGGCAUGCACCUGGUAGCUAGUCUUUAAACCAAUAGAUUGCAUCGGUUUAAAAGGCAAGACCGUCAAAUUGCGGGAAAGGGGUCAACAGCCGUUCAGUACCAAGUCUCAGGGGAAACUUUGAGAUGGCCUUGCAAAGGGUAUGGUAAUAAGCUGACGGACAUGGUCCUAACCACGCAGCCAAGUCCUAAGUCAACAGAUCUUCUGUUGAUAUGGAUGCAGUUCACAGACUAAAUGUCGGUCGGGGAAGAUGUAUUCUUCUCAUAAGAUAUAGUCGGACCUCUCCUUAAUGGGAGCUAGCGGAUGAAGUGAUGCAACACUGGAGCCGCUGGGAACUAAUUUGUAUGCGAAAGUAUAUUGAUUAGUUUUGGAGUACUCGUGGUCG
In short: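 The eight P1ex-region nucleotides of an intron in the knt kanamycin-resistance gene on pET-22b(+) were all randomised and the library put into E. coli BL21(DE3). Six replicate transformations were grown overnight at 37°C or 30°C on LB agar with or without 25 μg/mL kanamycin, together with 100 μg/mL carbenicillin, 50 μM IPTG and 0.2% rhamnose. Colonies were pooled and amplicon-sequenced on an Illumina HiSeq 2500. Fitness from DiMSum is the error-weighted combination of wild-type-normalised replicate fold changes, kanamycin over none.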

Sequence	self-splicing fitness (ln) (30 °C)	self-splicing fitness (ln) (37 °C)
UAGAAGCAAUAUUACGUAAA	-2.04 ± 0.14	-1.33 ± 0.14
UAGCAGCAAUAUUACGAACU	-0.336 ± 0.18	0.618 ± 0.14
UAGCAGCAAUAUUACGAAUG	-0.736 ± 0.072	-0.47 ± 0.13
UAGCAGCAAUAUUACGACAA	-1.68 ± 0.12	-0.157 ± 0.14
UAGCAGCAAUAUUACGACCC		-0.938 ± 0.41
UAGCAGCAAUAUUACGACUG	-0.817 ± 0.14	-0.556 ± 0.18
UAGCAGCAAUAUUACGAGCG	0.035 ± 0.078	0.235 ± 0.098
UAGCAGCAAUAUUACGAUCG	-0.76 ± 0.093	-0.0334 ± 0.12
UAGCAGCAAUAUUACGCCGA	-0.884 ± 0.14	0.482 ± 0.14
UAGCAGCAAUAUUACGCCGG	-0.94 ± 0.096	-0.0813 ± 0.15
UAGCAGCAAUAUUACGGACG	-0.528 ± 0.08	-0.837 ± 0.1
UAGCAGCAAUAUUACGGCCA	0.54 ± 0.1	0.33 ± 0.16
UAGCAGCAAUAUUACGGCCU	-0.225 ± 0.093	0.118 ± 0.12
UAGCAGCAAUAUUACGUACA	-1.16 ± 0.091	-0.0473 ± 0.1
UAGCAGCAAUAUUACGUACC	-1.91 ± 0.38	
UAGCAGCAAUAUUACGUCCC	-3.06 ± 0.41	-1.7 ± 0.4
UAGGAGCAAUAUUACGAACC	-3.08 ± 0.41	
UAGGAGCAAUAUUACGCACA	-0.278 ± 0.33	-0.212 ± 0.38
UAGGAGCAAUAUUACGCACU		-0.383 ± 0.28
UAGGAGCAAUAUUACGCGGA	-3.57 ± 0.38	-2.52 ± 0.26
UAGGAGCAAUAUUACGCGUG	-2.31 ± 0.12	-0.579 ± 0.12
UAGGAGCAAUAUUACGCUCG	-1.49 ± 0.21	0.196 ± 0.24
UAGGAGCAAUAUUACGGAAU	-4.06 ± 0.36	-2.51 ± 0.33
UAGGAGCAAUAUUACGGAGA		-2.34 ± 0.38
UAGGAGCAAUAUUACGGAGU	-1.77 ± 0.36	
UAGGAGCAAUAUUACGGGAU	-3.21 ± 0.35	-2.27 ± 0.37

Sequence	self-splicing fitness (ln) (30 °C)	self-splicing fitness (ln) (37 °C)
UAGGAGCAAUAUUACGGUUA	-1.64 ± 0.12	0.0427 ± 0.11
UAGGAGCAAUAUUACGUAGU	-3.13 ± 0.3	-1.81 ± 0.3
UAGGAGCAAUAUUACGUAUU	-1.97 ± 0.36	-2.45 ± 0.41
UAGGAGCAAUAUUACGUGAU	-3.75 ± 0.35	-1.44 ± 0.3
UAGGAGCAAUAUUACGUGCU	-3.16 ± 0.34	-1.05 ± 0.23
UAGUAGCAAUAUUACGAACU	-0.595 ± 0.16	-1.05 ± 0.15
UAGUAGCAAUAUUACGACUG	0.526 ± 0.14	-0.333 ± 0.17
UAGUAGCAAUAUUACGAGUC	-4.06 ± 0.33	-2.03 ± 0.23
UAGUAGCAAUAUUACGCCAG	-2.8 ± 0.15	-1.94 ± 0.15
UAGUAGCAAUAUUACGCCCG	-0.0603 ± 0.35	0.255 ± 0.44
UAGUAGCAAUAUUACGCGAU	-2.23 ± 0.42	-0.904 ± 0.3
UAGUAGCAAUAUUACGCGCC	-2.32 ± 0.28	-0.984 ± 0.23
UAGUAGCAAUAUUACGCUGU	-3.6 ± 0.36	-1.91 ± 0.32
UAGUAGCAAUAUUACGGAGC	-2.84 ± 0.35	
UAGUAGCAAUAUUACGGAGG		-1.43 ± 0.44
UAGUAGCAAUAUUACGGCGA	-1.17 ± 0.17	-0.54 ± 0.17
UAGUAGCAAUAUUACGGCUA	0.21 ± 0.14	-0.257 ± 0.19
UAGUAGCAAUAUUACGGUUU	-3.57 ± 0.31	-0.883 ± 0.16
UAGUAGCAAUAUUACGUCUU	-0.75 ± 0.097	-0.388 ± 0.11
UAUAAGCAAUAUUACGAAUG	-1.24 ± 0.087	-0.222 ± 0.11
UAUAAGCAAUAUUACGAAUU	-2.74 ± 0.19	-0.731 ± 0.2
UAUAAGCAAUAUUACGACGC	-3.44 ± 0.23	-1.19 ± 0.17
UAUAAGCAAUAUUACGAGGG	-3.42 ± 0.3	
UAUAAGCAAUAUUACGAGGU	-3.53 ± 0.23	-2.54 ± 0.23
UAUAAGCAAUAUUACGAUUA	-0.327 ± 0.073	0.291 ± 0.098
